Measurements reported in publication PMC2854499 (Nature, 2008).

Target: T1, MBP-tagged WSTF C-motif (208-345) (human, UniProt Q9UIG0 208-345)
T1 sequence (looked up): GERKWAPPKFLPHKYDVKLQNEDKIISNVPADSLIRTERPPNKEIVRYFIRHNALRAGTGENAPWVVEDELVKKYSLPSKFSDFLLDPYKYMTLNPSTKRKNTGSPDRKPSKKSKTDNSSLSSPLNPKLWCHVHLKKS
Assay: pull-down + SEC

B1: GST-tagged WSTF N-motif (1-205) (domain or fragment, human, UniProt Q9UIG0 1-205, looked up)
chain: MAPLLGRKPFPLVKPLPGEEPLFTIPHTQEAFRTREEYEARLERYSERIWTCKSTGSSQLTHKEAWEEEQEVAELLKEEFPAWYEKLVLEMVHHNTASLEKLVDTAWLEIMTKYAVGEECDFEVGKEKMLKVKIVKIHPLEKVDEEATEKKSDGACDSPSSDKENSSQIAQDHQKKETVVKEDEGRRESINDRARRSPRKLPTSL
stoichiometry N: 1
